Results from paper PMC8811837 (Advanced Science, 2021).

Target: T1, σ70 (E. coli, UniProt P00579)
T1 construct: also called σR4 (region 4); σ70 R4
Assay: cryo-EM structure
Details: both partners purified

T1 sequence (P00579 whole entry): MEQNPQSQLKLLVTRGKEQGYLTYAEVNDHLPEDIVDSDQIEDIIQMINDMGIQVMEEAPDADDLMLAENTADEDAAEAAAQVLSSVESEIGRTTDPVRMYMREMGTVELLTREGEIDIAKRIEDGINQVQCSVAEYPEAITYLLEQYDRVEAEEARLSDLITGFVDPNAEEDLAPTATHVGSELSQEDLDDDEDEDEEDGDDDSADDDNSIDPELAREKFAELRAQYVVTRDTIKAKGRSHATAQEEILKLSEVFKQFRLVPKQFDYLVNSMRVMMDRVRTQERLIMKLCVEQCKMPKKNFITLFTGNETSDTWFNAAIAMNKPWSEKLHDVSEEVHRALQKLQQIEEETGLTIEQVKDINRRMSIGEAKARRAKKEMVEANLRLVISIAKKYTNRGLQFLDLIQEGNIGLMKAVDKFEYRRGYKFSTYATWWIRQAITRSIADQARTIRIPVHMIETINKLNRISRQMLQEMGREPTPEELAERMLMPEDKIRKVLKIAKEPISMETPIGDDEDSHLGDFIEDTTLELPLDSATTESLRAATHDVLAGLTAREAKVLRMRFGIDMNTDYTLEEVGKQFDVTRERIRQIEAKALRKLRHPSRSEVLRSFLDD

B1: RamA (natural protein)
chain: MTISAQVIDTIVEWIDDNLHQPLRIDDIARHAGYSKWHLQRLFLQYKGESLGRYIRERKLLLAARDLRDTDQRVYDICLKYGFDSQQTFTRVFTRTFNQPPGAYRKENHSRAH
  binding result: binds
